Measured values taken from patent US20190387724A1.

Target: human/mouse chimeric PD-1 protein (humanized PD-1 of B-hPD-1 mice) (human/mouse chimeric)
Test: flow cytometry on T lymphocytes (CD3+) of F1 generation B-hPD-1 mice

Sequence of human/mouse chimeric PD-1 protein (humanized PD-1 of B-hPD-1 mice) (human/mouse chimeric) (chain, as listed by the source mutant limits assumed): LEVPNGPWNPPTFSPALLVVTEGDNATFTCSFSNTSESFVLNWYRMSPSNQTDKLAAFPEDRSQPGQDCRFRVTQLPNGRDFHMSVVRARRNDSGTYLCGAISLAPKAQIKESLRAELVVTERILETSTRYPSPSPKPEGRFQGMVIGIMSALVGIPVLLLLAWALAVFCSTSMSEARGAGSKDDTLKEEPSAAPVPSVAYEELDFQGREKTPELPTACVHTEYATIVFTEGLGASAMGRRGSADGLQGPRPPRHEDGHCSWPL

- percent of double-positive cells (anti-human PD-1 and anti-mouse CD3): 92%
Substance: anti-human PD-1 antibody hPD-1 FITC (Biolegend, article number 329904)
